Results taken from patent US20200216506A1 (CHILDREN S MEDICAL CENTER, published 2020).

Experiments:
NEMO = NEMO (UniProt O88522 1-412); assay: MyD88 co-immunoprecipitation from LPS-stimulated iBMDMs, western blot (FIG. 74A)
Description: (§1) Data represent mean±SEM of triplicate wells. […] Data represent mean±SEM of triplicate wells.

IKKβ = molecular target: T1, IKKβ (UniProt O88351 1-757); assay: as above
T1 sequence (looked up): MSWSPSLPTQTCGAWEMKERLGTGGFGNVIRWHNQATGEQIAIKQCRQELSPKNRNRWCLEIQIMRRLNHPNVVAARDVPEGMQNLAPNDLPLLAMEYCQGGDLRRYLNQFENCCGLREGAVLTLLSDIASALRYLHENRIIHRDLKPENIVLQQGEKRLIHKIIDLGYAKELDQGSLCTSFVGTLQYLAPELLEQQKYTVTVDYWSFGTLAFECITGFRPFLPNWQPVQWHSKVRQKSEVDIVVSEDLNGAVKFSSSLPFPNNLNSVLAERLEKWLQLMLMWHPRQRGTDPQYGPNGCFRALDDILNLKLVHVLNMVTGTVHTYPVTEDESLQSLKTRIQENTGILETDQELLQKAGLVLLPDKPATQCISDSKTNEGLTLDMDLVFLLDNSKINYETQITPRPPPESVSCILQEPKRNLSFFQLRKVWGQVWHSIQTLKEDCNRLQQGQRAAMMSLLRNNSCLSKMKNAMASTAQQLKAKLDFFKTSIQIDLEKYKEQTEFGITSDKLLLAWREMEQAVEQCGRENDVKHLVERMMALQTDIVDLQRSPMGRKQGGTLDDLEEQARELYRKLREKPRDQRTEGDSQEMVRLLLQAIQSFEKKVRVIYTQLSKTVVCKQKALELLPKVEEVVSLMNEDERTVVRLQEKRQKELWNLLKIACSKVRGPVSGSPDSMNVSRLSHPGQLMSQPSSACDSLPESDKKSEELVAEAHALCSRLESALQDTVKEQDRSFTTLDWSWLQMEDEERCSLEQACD
Description: as §1

NEMO, sequence (O88522 whole entry): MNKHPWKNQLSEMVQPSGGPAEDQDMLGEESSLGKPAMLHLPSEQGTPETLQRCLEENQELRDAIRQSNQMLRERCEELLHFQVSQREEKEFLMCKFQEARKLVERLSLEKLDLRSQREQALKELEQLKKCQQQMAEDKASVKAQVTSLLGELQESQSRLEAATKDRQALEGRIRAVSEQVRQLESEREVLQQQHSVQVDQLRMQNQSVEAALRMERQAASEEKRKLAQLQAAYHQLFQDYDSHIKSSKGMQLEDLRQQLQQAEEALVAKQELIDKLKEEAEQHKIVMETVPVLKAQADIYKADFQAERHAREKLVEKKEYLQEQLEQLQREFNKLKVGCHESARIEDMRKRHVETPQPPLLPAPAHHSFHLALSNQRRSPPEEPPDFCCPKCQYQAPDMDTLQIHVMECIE

binding result (NEMO): no binding
binding result (IKKβ): no binding
B1: MyD88 (other, UniProt P22366 1-296, looked up)
chain: MSAGDPRVGSGSLDSFMFSIPLVALNVGVRRRLSLFLNPRTPVAADWTLLAEEMGFEYLEIRELETRPDPTRSLLDAWQGRSGASVGRLLELLALLDREDILKELKSRIEEDCQKYLGKQQNQESEKPLQVARVESSVPQTKELGGITTLDDPLGQTPELFDAFICYCPNDIEFVQEMIRQLEQTDYRLKLCVSDRDVLPGTCVWSIASELIEKRCRRMVVVVSDDYLQSKECDFQTKFALSLSPGVQQKRLIPIKYKAMKKDFPSILRFITICDYTNPCTKSWFWTRLAKALSLP
notes: Adaptor protein and core of the myddosome; also called endogenous MyD88; myeloid differentiation primary response gene 88
